Reference: patent publication US20090130105A1 (Biogen, published 2009)

Legend:
[1] = target: T1, human IGF-1R on H322M non-small cell lung cancer cells (human, UniProt P08069 31-1367); test: flow cytometry on H322M cells, anti-human Fab PE secondary (FIG. 55A)
T1 construct: Endogenous receptor of the tumor cell line; also called cell surface IGF-1R
Procedure: (§1) Cell lines were routinely cultured no greater than 20 passages. Flow cyotometric analysis of antibody binding to human cancer cells. Cells were lifted with cell dissociation buffer (Gibco catalog #13151-014), counted, washed and adjusted to 5×10⁶ cells/ml. Cells (2.5×10⁵; 50 uL) were added to each well of a 96-well round bottom plate (Costar #3799). Purified antibodies were tested at a starting concentration of 300 nM with serial half-log dilutions in FACS buffer. FACS buffer used throughout the assay was PBS (without Ca++/Mg++) containing 5% FBS. Samples were incubated on ice for 30 minutes, washed 3× with 200 uL FACS buffer and centrifuged at 1200 rpm for 3 minutes at 4° C. C2B8 (rituximab, IgG1) was used as a negative control. […] Samples were incubated for an additional 30 minutes on ice, shielded from light. Cells were washed as described above and resuspended in 100 μl FACS buffer containing propidium iodide (PI) for dead cell exclusion (BD Pharmingen, catalog# 51-66211E or 556463; use at 1:500 final in FACS buffer). Samples were run in triplicate using the FACSArray flow cytometer (Becton Dickinson) with 5000 live events collected per sample. Data analysis was performed using the GraphPad Prism version 5.0 software (GraphPad Software Inc., 11452 El Camino Real #215, San Diego, Calif. 92130). Results. […]

[2] = target: T1, human IGF-1R on H322M non-small cell …; test: cell-based or functional assay
[3] = target: T1, human IGF-1R on H322M non-small cell …; test: flow cytometry on H322M cells
Procedure: as §1

human IGF-1R(1-903)-Fc [4] = target: T2, human IGF-1R(1-903)-Fc (human, UniProt P08069 31-933); test: IGF-1 blocking ELISA at 20 nM IGF-1 His on biotinylated hIGF-1R-Fc
T2 construct: also called hIGF-1R-Fc; SDWT; not shown: human IgG1 Fc, C-terminal tag
Procedure: (§2) The dilutions were added to the plates in duplicate at 100 μL/well and the plates were incubated at RT for 1 hour. The plates were then washed four times with 200 μL/well PBST. An HRP-conjugated anti-Histag antibody (Penta-His HRP Conjugate, QIAGEN, Cat. No. 1014992) was diluted 1:1000 in PBST and added to plates at 100 μL/well, and the plates were incubated at RT for one hour. The plates were then washed four times with 200 μL/well PBST. SureBlue Reserve TMB Microwell Peroxidase Substrate (KPL, Cat. No. 53-00-01) was added to plates at 100 μL/well followed by 1% phosphoric acid at 100 μL/well once the desired reaction was observed. The absorbance of each well was determined at 450 nm, and the results were normalized and plotted against the log of antibody concentration.
(§3) Ligand Blocking Properties.

sIGF-1R(1-903) = target: T3, sIGF-1R(1-903) (human, UniProt P08069 31-933); test: SEC with static light scattering
T3 construct: also called soluble IGF-1R ectodomain
Procedure: Analytical size exclusion chromatography (SEC) with in-line static light scattering. […] All samples contained 25 μg of each protein diluted to a final volume of 50 μL in PBS, pH 7.2, before injection onto the SEC column onto a TSKgel G3000SW XL, 5 mm, 250 Å Analytical SEC column (Tosoh Biosciences) equilibrated in 10 mM phosphate, 150 mM NaCl, 0.02% sodium Azide at pH 6.8 using an Agilent 1100 HPLC system. Light scattering data for material eluting from the SEC column were collected using a miniDAWN static light scattering detector coupled to an in-line refractive index meter (Wyatt Technologies). Light scattering data were analyzed using the ASTRA V software provided by the manufacturer.
All samples were diluted to a final volume of 50 μL in PBS, pH 7.2 before SEC/static light scattering analysis.

human IGF-1R(1-903)-Fc [5] = target: T2, human IGF-1R(1-903)-Fc; test: IGF-1 blocking ELISA at 1280 nM IGF-1 His on biotinylated hIGF-1R-Fc
Procedure: as §2, §3

T1 sequence (P08069 31-1367, stated change not applied): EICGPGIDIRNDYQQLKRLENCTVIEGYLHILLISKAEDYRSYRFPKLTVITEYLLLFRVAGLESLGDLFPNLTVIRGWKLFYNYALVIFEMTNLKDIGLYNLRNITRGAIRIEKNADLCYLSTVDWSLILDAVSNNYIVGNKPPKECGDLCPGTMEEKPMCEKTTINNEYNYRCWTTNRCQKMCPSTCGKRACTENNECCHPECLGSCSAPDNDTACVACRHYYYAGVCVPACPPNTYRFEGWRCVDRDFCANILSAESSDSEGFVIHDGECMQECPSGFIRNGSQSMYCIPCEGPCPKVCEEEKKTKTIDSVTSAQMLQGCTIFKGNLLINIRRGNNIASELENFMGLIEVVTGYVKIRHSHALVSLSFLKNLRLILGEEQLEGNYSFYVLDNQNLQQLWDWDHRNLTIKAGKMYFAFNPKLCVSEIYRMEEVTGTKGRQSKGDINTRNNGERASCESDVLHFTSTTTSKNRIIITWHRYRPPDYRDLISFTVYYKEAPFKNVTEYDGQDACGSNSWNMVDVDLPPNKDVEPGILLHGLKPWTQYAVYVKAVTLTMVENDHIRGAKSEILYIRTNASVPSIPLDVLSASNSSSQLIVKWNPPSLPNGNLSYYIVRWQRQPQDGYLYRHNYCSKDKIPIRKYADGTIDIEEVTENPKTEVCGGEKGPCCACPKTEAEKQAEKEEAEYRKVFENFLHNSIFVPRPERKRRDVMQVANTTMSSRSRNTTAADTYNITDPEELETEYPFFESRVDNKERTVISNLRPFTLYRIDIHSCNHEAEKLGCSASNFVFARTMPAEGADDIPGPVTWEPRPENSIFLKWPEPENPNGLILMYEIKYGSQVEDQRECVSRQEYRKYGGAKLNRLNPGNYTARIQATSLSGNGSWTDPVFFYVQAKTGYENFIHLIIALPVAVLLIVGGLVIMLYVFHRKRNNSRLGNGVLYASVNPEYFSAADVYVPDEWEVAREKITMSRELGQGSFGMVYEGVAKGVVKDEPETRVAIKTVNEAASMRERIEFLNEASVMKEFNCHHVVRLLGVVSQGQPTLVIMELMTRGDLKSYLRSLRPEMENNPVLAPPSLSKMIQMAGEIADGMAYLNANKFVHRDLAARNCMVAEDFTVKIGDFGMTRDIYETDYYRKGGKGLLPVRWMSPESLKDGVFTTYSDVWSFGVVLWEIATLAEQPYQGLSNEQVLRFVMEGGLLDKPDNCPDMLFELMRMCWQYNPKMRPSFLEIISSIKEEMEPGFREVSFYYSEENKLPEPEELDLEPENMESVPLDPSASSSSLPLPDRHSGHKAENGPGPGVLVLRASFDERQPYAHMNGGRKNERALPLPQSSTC
T2 sequence (P08069 31-933): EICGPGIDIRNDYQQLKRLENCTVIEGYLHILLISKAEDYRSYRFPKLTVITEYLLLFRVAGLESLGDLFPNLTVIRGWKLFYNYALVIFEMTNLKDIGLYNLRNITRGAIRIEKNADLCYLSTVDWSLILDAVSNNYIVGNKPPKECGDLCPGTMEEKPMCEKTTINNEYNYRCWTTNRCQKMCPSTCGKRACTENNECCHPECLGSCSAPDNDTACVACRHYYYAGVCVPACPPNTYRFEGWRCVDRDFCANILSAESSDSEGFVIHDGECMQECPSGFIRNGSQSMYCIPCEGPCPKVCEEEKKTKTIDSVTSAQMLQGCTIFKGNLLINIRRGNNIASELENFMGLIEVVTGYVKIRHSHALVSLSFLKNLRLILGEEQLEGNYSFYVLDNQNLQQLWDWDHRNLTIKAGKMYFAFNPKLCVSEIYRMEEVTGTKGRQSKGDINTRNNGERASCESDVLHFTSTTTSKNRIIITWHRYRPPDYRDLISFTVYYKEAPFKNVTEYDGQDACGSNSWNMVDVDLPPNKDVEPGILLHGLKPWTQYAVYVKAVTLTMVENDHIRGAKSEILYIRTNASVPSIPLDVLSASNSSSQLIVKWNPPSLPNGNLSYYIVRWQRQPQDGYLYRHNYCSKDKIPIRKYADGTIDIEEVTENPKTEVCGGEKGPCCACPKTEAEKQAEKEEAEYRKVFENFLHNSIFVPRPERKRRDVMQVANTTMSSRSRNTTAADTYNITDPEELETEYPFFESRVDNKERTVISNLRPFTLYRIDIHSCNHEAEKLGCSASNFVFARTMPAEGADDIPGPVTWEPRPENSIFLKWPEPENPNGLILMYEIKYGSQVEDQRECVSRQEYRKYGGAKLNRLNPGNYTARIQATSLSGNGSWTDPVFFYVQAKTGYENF
T3 sequence (P08069 31-933): as above

EC50 [1]: 0.2 nM
reduction of surface IGF-1R after 24 hours (FACS, H322M cells) [2]: > 70%
EC50 [3]: < 1 nM
IC50 (read off the curve) (human IGF-1R(1-903)-Fc [4]): ~1 nM
molecular weight of the complex (sIGF-1R(1-903)): 2 MDa
IC50 (read off the curve) (human IGF-1R(1-903)-Fc [5]): ~1 nM
B1: M13-C06 antibody (antibody, V domains shown)
VH: EVQLLESGGGLVQPGGSLRLSCAASGFTFSIYRMQWVRQAPGKGLEWVSGISPSGGTTWYADSVKGRFTISRDNSKNTLYLQMNSLRAEDTAVYYCARWSGGSGYAFDIWGQGTMVTVSS
VL: DIQMTQSPLSLSASVGDRVTITCQASRDIRNYLNWYQQKPGKAPKLLIYDASSLQTGVPSRFGGSGSGTDFSFTIGSLQPEDIATYYCQQFDSLPHTFGQGTKLEIK
notes: Fully human full-length antibody (ATCC PTA-7444); also called M13.C06.G4.P.agly; M13-C06.G4P.agly
